{
  "source": "paper PMC5691641",
  "origin": "cited, not measured here",
  "biological_target": "Bax (Homo sapiens) (UniProt Q07812)",
  "sequence (Q07812 whole entry)": "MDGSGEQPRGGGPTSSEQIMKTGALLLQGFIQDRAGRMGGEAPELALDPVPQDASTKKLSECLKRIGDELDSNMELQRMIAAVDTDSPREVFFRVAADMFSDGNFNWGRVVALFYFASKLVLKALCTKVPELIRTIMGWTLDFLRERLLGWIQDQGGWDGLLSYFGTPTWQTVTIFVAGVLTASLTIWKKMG",
  "data": [
    {"substance": "vMIA (from UniProt P16778)", "values": [
      {"measurement": "Kd", "value": 22, "unit": "nM"}
    ]}
  ]
}
